Laboratory results taken from patent US20150299268A1 (UNIVERSITY OF MARYLAND BALTIMORE, published 2015).

Key:
BaL-gp120-Y39A = target: T1, BaL-gp120-Y39A (HIV-1 BaL); experiment: capture ELISA
T1 construct: domain: gp120

BaL-gp120-E31A = target: T2, BaL-gp120-E31A (HIV-1 BaL); experiment: capture ELISA
T2 construct: domain: gp120

BaL-gp120-Y61A = target: T3, BaL-gp120-Y61A (HIV-1 BaL); experiment: capture ELISA
T3 construct: domain: gp120

BaL-gp120-T499A = target: T4, BaL-gp120-T499A (HIV-1 BaL); experiment: capture ELISA
T4 construct: domain: gp120

BaL-gp120-S158A = target: T5, BaL-gp120-S158A (HIV-1 BaL); experiment: capture ELISA
T5 construct: domain: gp120

BaL-gp120-K487AK490A = target: T6, BaL-gp120-K487AK490A (HIV-1 BaL); experiment: capture ELISA
T6 construct: domain: gp120

BaL-gp120-I491A = target: T7, BaL-gp120-I491A (HIV-1 BaL); experiment: capture ELISA
T7 construct: domain: gp120

BaL-gp120-K500A = target: T8, BaL-gp120-K500A (HIV-1 BaL); experiment: capture ELISA
T8 construct: domain: gp120

BaL-gp120-I423A = target: T9, BaL-gp120-I423A (HIV-1 BaL); experiment: capture ELISA
T9 construct: domain: gp120

BaL-gp120-W35A = target: T10, BaL-gp120-W35A (HIV-1 BaL); experiment: capture ELISA
T10 construct: domain: gp120

BaL-gp120-R476A = target: T11, BaL-gp120-R476A (HIV-1 BaL); experiment: capture ELISA
T11 construct: domain: gp120

BaL-gp120-D78A = target: T12, BaL-gp120-D78A (HIV-1 BaL); experiment: capture ELISA
T12 construct: domain: gp120

BaL-gp120-W45A = target: T13, BaL-gp120-W45A (HIV-1 BaL); experiment: capture ELISA
T13 construct: domain: gp120

BaL-gp120-I420R = target: T14, BaL-gp120-I420R (HIV-1 BaL); experiment: capture ELISA
T14 construct: domain: gp120; also called -1420R

BaL-gp120-R476AR480A = target: T15, BaL-gp120-R476AR480A (HIV-1 BaL); experiment: capture ELISA
T15 construct: domain: gp120

BaL-gp120-E32A = target: T16, BaL-gp120-E32A (HIV-1 BaL); experiment: capture ELISA
T16 construct: domain: gp120

BaL-gp120-E492A = target: T17, BaL-gp120-E492A (HIV-1 BaL); experiment: capture ELISA
T17 construct: domain: gp120

BaL-gp120-V44A = target: T18, BaL-gp120-V44A (HIV-1 BaL); experiment: capture ELISA
T18 construct: domain: gp120

BaL-gp120-E106AD107A = target: T19, BaL-gp120-E106AD107A (HIV-1 BaL); experiment: capture ELISA
T19 construct: domain: gp120

BaL-gp120-F53A = target: T20, BaL-gp120-F53A (HIV-1 BaL); experiment: capture ELISA
T20 construct: domain: gp120

BaL-gp120-G495A = target: T21, BaL-gp120-G495A (HIV-1 BaL); experiment: capture ELISA
T21 construct: domain: gp120

BaL-gp120-Y40A = target: T22, BaL-gp120-Y40A (HIV-1 BaL); experiment: capture ELISA
T22 construct: domain: gp120

BaL-gp120-D57AD62A = target: T23, BaL-gp120-D57AD62A (HIV-1 BaL); experiment: capture ELISA
T23 construct: domain: gp120

BaL-gp120-K33A = target: T24, BaL-gp120-K33A (HIV-1 BaL); experiment: capture ELISA
T24 construct: domain: gp120

BaL-gp120-V75A = target: T25, BaL-gp120-V75A (HIV-1 BaL); experiment: capture ELISA
T25 construct: domain: gp120

BaL-gp120-P76A = target: T26, BaL-gp120-P76A (HIV-1 BaL); experiment: capture ELISA
T26 construct: domain: gp120

BaL-gp120-E47AE91A = target: T27, BaL-gp120-E47AE91A (HIV-1 BaL); experiment: capture ELISA
T27 construct: domain: gp120

BaL-gp120-P493A = target: T28, BaL-gp120-P493A (HIV-1 BaL); experiment: capture ELISA
T28 construct: domain: gp120

BaL-gp120-T303A = target: T29, BaL-gp120-T303A (HIV-1 BaL); experiment: capture ELISA
T29 construct: domain: gp120; glycan mutant, V3 region

BaL-gp120-D62A = target: T30, BaL-gp120-D62A (HIV-1 BaL); experiment: capture ELISA
T30 construct: domain: gp120

BaL-gp120-K46A = target: T31, BaL-gp120-K46A (HIV-1 BaL); experiment: capture ELISA
T31 construct: domain: gp120

BaL-gp120-T455A = target: T32, BaL-gp120-T455A (HIV-1 BaL); experiment: capture ELISA
T32 construct: domain: gp120

BaL-gp120-dV1 = BaL-gp120-dV1 (HIV-1 BaL); experiment: capture ELISA
BaL-gp120-dV3 = BaL-gp120-dV3 (HIV-1 BaL); experiment: capture ELISA
BaL-gp120-H105A = target: T33, BaL-gp120-H105A (HIV-1 BaL); experiment: capture ELISA
T33 construct: domain: gp120

BaL-gp120-E47A = target: T34, BaL-gp120-E47A (HIV-1 BaL); experiment: capture ELISA
T34 construct: domain: gp120

BaL-gp120-P498A = target: T35, BaL-gp120-P498A (HIV-1 BaL); experiment: capture ELISA
T35 construct: domain: gp120

BaL-gp120-L494A = target: T36, BaL-gp120-L494A (HIV-1 BaL); experiment: capture ELISA
T36 construct: domain: gp120

core-V1V2-D7 = core-V1V2-D7 (HIV-1); experiment: capture ELISA
BaL-gp120-V68A = target: T37, BaL-gp120-V68A (HIV-1 BaL); experiment: capture ELISA
T37 construct: domain: gp120

BaL-gp120-S200A = target: T38, BaL-gp120-S200A (HIV-1 BaL); experiment: capture ELISA
T38 construct: domain: gp120; also called 5200A

BaL-gp120-R58AK59A = target: T39, BaL-gp120-R58AK59A (HIV-1 BaL); experiment: capture ELISA
T39 construct: domain: gp120

BaL-gp120-T162A = target: T40, BaL-gp120-T162A (HIV-1 BaL); experiment: capture ELISA
T40 construct: domain: gp120; glycan mutant

BaL-gp120-W69A = target: T41, BaL-gp120-W69A (HIV-1 BaL); experiment: capture ELISA
T41 construct: domain: gp120

BaL-gp120-D57A = target: T42, BaL-gp120-D57A (HIV-1 BaL); experiment: capture ELISA
T42 construct: domain: gp120

BaL-gp120-dV2 = BaL-gp120-dV2 (HIV-1 BaL); experiment: capture ELISA
BaL-gp120-mV3 = BaL-gp120-mV3 (HIV-1 BaL); experiment: capture ELISA
BaL-gp120-D57AD78A = target: T43, BaL-gp120-D57AD78A (HIV-1 BaL); experiment: capture ELISA
T43 construct: domain: gp120

BaL-gp120-V496A = target: T44, BaL-gp120-V496A (HIV-1 BaL); experiment: capture ELISA
T44 construct: domain: gp120

core-V3-D7 = core-V3-D7 (HIV-1); experiment: capture ELISA
core-D7 = core-D7 (HIV-1); experiment: capture ELISA
BaL-gp120 [1] = target: T45, BaL-gp120 (HIV-1 BaL); experiment: capture ELISA
T45 construct: domain: gp120; also called monomeric gp120; monomeric BaL gp120

gp120-JR4-ScFV [2] = experiment: ELISA
gp120-JR48.1-ScFV = experiment: ELISA
gp120-b12-ScFV = experiment: ELISA
gp120-JR4-ScFV [3] = experiment: ELISA; remark: listed apart in the source
FLSC R/T = target: T46, FLSC R/T (HIV-1, UniProt P01730 26-208); experiment: ELISA
T46 construct: not shown: linker of FLSC not described

BaL-gp120 [4] = target: T45, BaL-gp120; experiment: ELISA

B1: b12 (antibody, V domains shown)
VH: QVQLVQSGAEVKKPGASVKVSCQASGYRFSNFVIHWVRQAPGQRFEWMGWINPYNGNKEFSAKFQDRVTFTADTSANTAYMELRSLRSADTAVYYCARVGPYSWDDSPQDNYYMDVWGKGTTVIVSS
VL: EIVLTQSPGTLSLSPGERATFSCRSSHSIRSRRVAWYQHKPGQAPRLVIHGVSNRASGISDRFSGSGSGTDFTLTITRVEPEDFALYYCQVYGASSYTFGQGTKLERK
With B1 the “% Binding” value (BaL-gp120-Y39A) was 90%, the “% Binding” value (BaL-gp120-E31A) was 86% and the “% Binding” value (BaL-gp120-Y61A) was 85%. For the same binder, the “% Binding” value (BaL-gp120-T499A) was 107%, the “% Binding” value (BaL-gp120-S158A) was 80% and the “% Binding” value (BaL-gp120-K487AK490A) was 85%. The “% Binding” value (BaL-gp120-I491A) was 98%, the “% Binding” value (BaL-gp120-K500A) was 93% and the “% Binding” value (BaL-gp120-I423A) was 96%. For the same binder, the “% Binding” value (BaL-gp120-W35A) was 107%, the “% Binding” value (BaL-gp120-R476A) was 101% and the “% Binding” value (BaL-gp120-D78A) was 92%. The “% Binding” value (BaL-gp120-W45A) was 96%, the “% Binding” value (BaL-gp120-I420R) was 101% and the “% Binding” value (BaL-gp120-R476AR480A) was 68%. For the same binder, the “% Binding” value (BaL-gp120-E32A) was 104%, the “% Binding” value (BaL-gp120-E492A) was 105% and the “% Binding” value (BaL-gp120-V44A) was 94%. The “% Binding” value (BaL-gp120-E106AD107A) was 80%, the “% Binding” value (BaL-gp120-F53A) was 91% and the “% Binding” value (BaL-gp120-G495A) was 90%. For the same binder, the “% Binding” value (BaL-gp120-Y40A) was 106%, the “% Binding” value (BaL-gp120-D57AD62A) was 103% and the “% Binding” value (BaL-gp120-K33A) was 89%. The “% Binding” value (BaL-gp120-V75A) was 93%, the “% Binding” value (BaL-gp120-P76A) was 96% and the “% Binding” value (BaL-gp120-E47AE91A) was 86%. For the same binder, the “% Binding” value (BaL-gp120-P493A) was 95%, the “% Binding” value (BaL-gp120-T303A) was 92% and the “% Binding” value (BaL-gp120-D62A) was 98%. For the same binder, the “% Binding” value (BaL-gp120-K46A) was 93%, the “% Binding” value (BaL-gp120-T455A) was 90% and the “% Binding” value (BaL-gp120-dV1) was 90%. For the same binder, the “% Binding” value (BaL-gp120-dV3) was 109%, the “% Binding” value (BaL-gp120-H105A) was 100% and the “% Binding” value (BaL-gp120-E47A) was 100%. The “% Binding” value (BaL-gp120-P498A) was 97%, the “% Binding” value (BaL-gp120-L494A) was 95% and the “% Binding” value (core-V1V2-D7) was 103%. The “% Binding” value (BaL-gp120-V68A) was 83%, the “% Binding” value (BaL-gp120-S200A) was 86% and the “% Binding” value (BaL-gp120-R58AK59A) was 101%. For the same binder, the “% Binding” value (BaL-gp120-T162A) was 110%, the “% Binding” value (BaL-gp120-W69A) was 97% and the “% Binding” value (BaL-gp120-D57A) was 95%. For the same binder, the “% Binding” value (BaL-gp120-dV2) was 87%, the “% Binding” value (BaL-gp120-mV3) was 100% and the “% Binding” value (BaL-gp120-D57AD78A) was 96%. The “% Binding” value (BaL-gp120-V496A) was 100%, the “% Binding” value (core-V3-D7) was 102% and the “% Binding” value (core-D7) was 106%. For the same binder, the “% Binding” value (BaL-gp120 [1]) was 100%.

B2: JR4 (antibody, V domains shown)
VH: EVQLVESGPGLVKPLETLSLTCAVPGGSIRRNYWSWIRQPPGKGLEWIGHSYGSGGSTNYNPSLESRVTLSVDTSKNLFSLKLTSVTAADTAVYYCARTVWYYTSGTHYFDHWGQGVLVTVSS
VL: QSVLTQPPSVSAAPGQKVTISCSGSSSNIGRSYVSWYQQVPGAAPKLLIYDTNKRPSGVSDRFSGSKSGSSASLAITGLQTGDEADYYCGAWDGSLNVHIFGSGTKLTVL
With B2 the binding result (gp120-JR4-ScFV [2]) was “no binding (tested: >100 fold of the Ab needed on gp120)”, the “Fold of Ab needed for ELISA binding OD equal to half max on gp120” value (from here on “Fold of Ab needed”) (gp120-JR48.1-ScFV) was 0.21 fold and the “Fold of Ab needed” value (gp120-b12-ScFV) was 0.09 fold. For the same binder, the “Fold of Ab needed” value (gp120-JR4-ScFV [3]) was > 100 fold, the “Fold of Ab needed” value (FLSC R/T) was 0.11 fold and the “Fold of Ab needed” value (BaL-gp120 [4]) was 1 fold.
